In the nanobody polyreactivity screen of Harvey et al. (2022):

assay: yeast display, Sf9 membrane polyspecificity reagent, FACS + sequencing; frameworks hold sequencing errors
Procedure, shortened: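 Synthetic nanobody libraries on Saccharomyces cerevisiae BJ5465 were galactose-induced for 36–48 hours, stained 1 hour at 4 °C with 10% biotinylated, detergent-solubilized Sf9 membrane reagent and enriched on streptavidin microbeads. FACS then separated cells into low and high (top ~1%) gates by anti-HA (expression) and streptavidin (reagent binding) fluorescence. Genes were colony-PCR amplified, MiSeq 2 × 250 sequenced and CDR-length filtered. A clone's polyreactivity label is that of its gate of origin.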

For “QVQLVESGGGLVQAGGSLRLSCAASGIIFFWNAMGWYRQAPGKERELVAAISEDGGGTYYADSVKGRFTISRDNAKNTVYLQMNSLKPEDTAVYYCNTDTSPQIVTRRSFDDYWGQGTQVTVSS”, which “polyreactivity (PSR sort gate)” value is on record?
The value was “low polyreactivity”.

For “QVHLVESGGGLVQAGGSLRLSCAASGRTFGTYAMGWYRQAPGKERELVAAISSGGSTNYADSVKGRFTISRGNAKNTVYLQMNSLKPEDTAVYYCAAQGYWTYWPYLLRLYDYWGQGTQVTVSS”, which “polyreactivity (PSR sort gate)” value is on record?
The value was “low polyreactivity”.

With “QVQLVESGGGLVQAGGSLRLSCAASGSIFSKNAMGWYRQAPGKERELVAAISWSGDRTYYADSVKGRFTISRDNAKNTVYLQMNSLKPEDTAVYYCAADYTVKYGYWGQGTQVTVSS” as the sequence, how does the “polyreactivity (PSR sort gate)” value read?
The value was “high polyreactivity”.

With “QVQLVESGGGLVQAGGSLRLSCAASGSTFAYYVMGWYRQAPGTERELVAAITSSGGRTYYADSVKGRFTISRDNAKNTVYLQMNSLKPEDTAVYYCAKVSQRGVDNSDYDYWGQGTQVTVSS” as the sequence, how does the “polyreactivity (PSR sort gate)” value read?
The value was “high polyreactivity”.

For “QVQLVESGGGLVQAGGSLRLSCAASGSILYRYTMGWDRQAPGKERELVAAISFSGGRTYYADSVKGRFTISRDNAKNTVYLQMNSLKPEDTAVYYCNAGTSGKYGYWGQGTQVTVSS”, which “polyreactivity (PSR sort gate)” value is on record?
Its value is “high polyreactivity”.

For “QVQLVESGGGLVQAGGSLRLSCAASGSTFSSYAMGWYRQAPGKERELVARITSGDSTYYADSVKGRFTISRDNAKNTVYLQMNSLKPEDTAVYYCNAVAYGRTYDYWGQGTQVTVSS”, which “polyreactivity (PSR sort gate)” value is on record?
Its value is “high polyreactivity”.

With “QVQLVESGGGLVQAGGSLRLSCAASGSTFSRYTMGWYRQAPGKERELVAAISKSGGSTYYADSVKGRFTISRDNAKNTVYLQMNSLKPEDTAVYYCAALVRAGTSLDYDYWGQGTQVTVSS” as the sequence, how does the “polyreactivity (PSR sort gate)” value read?
The value was “high polyreactivity”.

Which “polyreactivity (PSR sort gate)” value does the source give for “QVQLVETGVGLVQAGGSLRLSCAASGRIFKRNTMGWYRQAPGKEREFVASITFSGGSTNYADSVKGRFTISRDNAKNTVYLQMNSLKPEDTAVYYCAARDYHYSTYDYWGQGTQVTVSS” here?
The value was “low polyreactivity”.

With “QVQLVESGGGLLQAGGSLRLTCAASGFTFSLNTMGWYRQAPAKEREFVAAINSGDSTYADSVKGRYTISRDNAKNTVYLQMNSLKPEDTAVYYCNADPDWWYPYNYWGQGTQVTVSS” as the sequence, how does the “polyreactivity (PSR sort gate)” value read?
Its value is “low polyreactivity”.

With “QVQLVESGGGLVQAGGSLRLSCAASGFISTPYAIGWYRQAPGKERELVAAIDISGGRTYYADSVKGRFTISRDNAKNTVYLQMNSLKPEDTAVYDCAAQLVSSYYAWYRTYYYWGQGTQVTVSS” as the sequence, how does the “polyreactivity (PSR sort gate)” value read?
The value was “high polyreactivity”.

With “QVHLVESGGGLVQAGGSLRLSCAATGRTFIIYTMAWYRQAPGKESEFVAAITRSGGGTYYADSVKGRFTISRDNAKNTVYLQMNSQKPEDTAVYYCAAVRFYDQAYDYWGQGTQVTVSS” as the sequence, how does the “polyreactivity (PSR sort gate)” value read?
Its value is “low polyreactivity”.

For “QVQLVESGGGLVQAGGSLRLSCAASGRTFIRYAMGWYRQAPGKESELVAAISSRGGRTHYADSVKGRFTISRDNAKNTVYLQMNSLKPEDTAVYYCAADLTYVTVPGASYDYWGQCTQVTVSS”, which “polyreactivity (PSR sort gate)” value is on record?
The value was “low polyreactivity”.

Which “polyreactivity (PSR sort gate)” value does the source give for “QVQLVESGGGLVQAGGSLRLSCAASGSIFLSNAMGWSRQAPGKERELVADIDWTGGDTYYADSVKGRFTISRDNAKNTVYLQMNSLKPEDTAVYYCAADYGYRNLLTEYGYWGQGTQVTVSS” here?
The value was “low polyreactivity”.

Which “polyreactivity (PSR sort gate)” value does the source give for “QVQLVESGGGLVQAGGSLRLSCAASGSTFGHYARGWYRQATGKERELVAAISFTGARTYYADSVKGRFTISRDNAKNTVYLQMNSLKPEDTAVYYCIARGDYRISDYWGQGTQVTVSS” here?
The value was “high polyreactivity”.

Which “polyreactivity (PSR sort gate)” value does the source give for “QVQLVESGGGLVQAGGSLRLSCAASGIIFTDNAMGWSRQAPGKERELVAAISCRGGSTYYADSVKGRFTISRDNAKNTVYLQMNSLKPEDTAVYYCARYGTDHRLGYGYWGQGTQVTVSS” here?
The value was “low polyreactivity”.

For “QVQIVESGGGLVQEGGSLRLSCAASGRIFEPYDMGLYRQSPGKERELVAALRCSGGSTYYADSVKGRFTISRDNAKNTVYLQMNSLKPEDTAVYYCAKDAFGWGRVYYYRSGYWGQGTQVTVSS”, which “polyreactivity (PSR sort gate)” value is on record?
Its value is “high polyreactivity”.

For “QVQLVESGGGLVQAGGSLRLSCAASGFTFWPNAMGWYRQAPGKERELVAAINWSGGSTYYADSVKGRFTISRDNAKNTVFLQLNSLKPEDTAVYYCAAVSYDWYVGYEFWGQGTQVTVSS”, which “polyreactivity (PSR sort gate)” value is on record?
The value was “low polyreactivity”.

For “QVQLVESGGGLVQAGGSLRLSCAASGSIFFVYAMGWYRQAPGKERELVAAITWSGGRTYYADSVKGRFTISRDNAKNTVYLQMNSLKPEDTAVYYCAARKYSDYFTPRYYYWGQGTQVTVSS”, which “polyreactivity (PSR sort gate)” value is on record?
Its value is “high polyreactivity”.

For “QVKLVESGGGLVQAGGSLRFSCAASGSTFTKNARGWYRQAPGKERELVAGISRSGGNTYYADSVMGRFTISRDNSKNTVYLQLNRLKPEDTAVSYCAKVVRGIDSNLDDYWGQGTQVTVSS”, which “polyreactivity (PSR sort gate)” value is on record?
The value was “high polyreactivity”.

For “QVQLVESGGGLVQAGGSLRLSCAASGGTFTHNAMGWYRQAPGKERELVAAISSSGVRTYYADSVKGRFTISRDNAKNTVYLQMNSLKPEDTAVYYCAADRFRRLHYWTYDYWGQGTQVTVSS”, which “polyreactivity (PSR sort gate)” value is on record?
Its value is “high polyreactivity”.

For “QVQLVESGGGLVQAGGSLRLSCAASGIIFFSNAMGWYRQAPGKERELVAAITGGSSTNYADSVKGRFTISRDNAKNTVYLQMNSLKPEENAVYYCNAPTKSTPRSEPIPYYEFDYWGQGTQVTVSS”, which “polyreactivity (PSR sort gate)” value is on record?
The value was “low polyreactivity”.

With “QVQLVESGGGLVQAGGSLRLSCGASGSIFYGYAMGWYRQAPGKERELVAAITLSGRRTYYADSVKGRFTISRDNAKNTVDSQMNTLKPEDTEVYYCAKHYPYPTEMNYWGQGTQVTVTS” as the sequence, how does the “polyreactivity (PSR sort gate)” value read?
Its value is “high polyreactivity”.

Which “polyreactivity (PSR sort gate)” value does the source give for “QVQLVESGGGLVQAGGSLRLSCAASGSTSSLYTMGWYKQAPGKERELVAAITVSGSRTYYADSVKGRFTISRDNAKNTVYLQMNSLKPEDTAVYYCNAYPYYLVRNMDSWGQGTQVTVSS” here?
The value was “high polyreactivity”.

With “QVQLVESGGGLVQAGGRLRLSCPASGGTFYIYVMGWYRQAPGKESELVAAITSGDSTNYADSVKGRFTISRDNAKNTVYLQMNSLKPEDTAVYYCAVGITQDPLMYYPFFFHYDYWGQGTQVTVSS” as the sequence, how does the “polyreactivity (PSR sort gate)” value read?
The value was “low polyreactivity”.

Which “polyreactivity (PSR sort gate)” value does the source give for “QVQLVESGGGLVQAGGSLRLTCAASGFTFAYKTMGWYRQAPGKERELVAAISWSGGRTYYADSVKGRFTISRDNAKNTVYLQMNSLKPEHTAVYYCAAEFWNQYGAYDYWGQGTQVTLSS” here?
The value was “low polyreactivity”.

With “QVQLVESGGGLVQAGGSLRLSCAASGRIFYPNAMGWYRQAPGKERELVASISRGGPTSYADSVKGRFTISRDNAKNTVYLQINSLKPEDTAVYDCAADVAWYRYRSYYWGQGTQVTVSS” as the sequence, how does the “polyreactivity (PSR sort gate)” value read?
The value was “high polyreactivity”.

Which “polyreactivity (PSR sort gate)” value does the source give for “QVQLVESGGGLFHAGGSLRLSCAASGSTFSRNAMGWYIPAPGKEREFVAAISWSGSSTYYADSVKGRFTISRDNAKNTVYLQMNSLKPEDTAVYYCAARSYYDGFYYWGQGTQVTVSS” here?
The value was “high polyreactivity”.

Which “polyreactivity (PSR sort gate)” value does the source give for “QVQLVESGGGLVQAGGSLRLSCAPSGSTFQYNAMGWYRQAPGKEREFVAAISWRGGNTYYADSVKGRFTISRDNAKNTVYLQMNSLKPEDTAVYYCAAGRQRYAFKYYYWGQGTQVTVSS” here?
The value was “high polyreactivity”.

For “QVQLVESGGGLVQAGGSLRLSCAASGSTIATYAMGWYRQAPGKERELVATISSSGSGTYYADSVKGRFTISRDNAKNTVYLQMNSLKPEDTAVYYCAVDSRGKLGISGEYGYWGQGSQVTVSS”, which “polyreactivity (PSR sort gate)” value is on record?
Its value is “low polyreactivity”.

With “QVQLVESGGGLVQAGGSLRLSCAASGFTFSWYAMGWYRQAPGKERELVAAITSGGSTYYADSVKGRFTLSRDNAKNTVYLQMISLKPEDTAVYYCNKAFASIAPVWSGYDFWGQGTQVTVSS” as the sequence, how does the “polyreactivity (PSR sort gate)” value read?
The value was “low polyreactivity”.

With “QVQLVESGGGLVQAGGSLRLSCAASGSTYPGNAMGWYRQAPGNERELVALINDGADTNYADSVKGRFTISRDNAKNTVYLQMNSLKPEDTAVYYCAKRSLYPTYDYWGQGTQVTVSS” as the sequence, how does the “polyreactivity (PSR sort gate)” value read?
The value was “low polyreactivity”.

Which “polyreactivity (PSR sort gate)” value does the source give for “QVQLVESGGGLVQAGGSLRLSCAASGRTFTGNVMGWYRQAPGKERELVAAISRRGGITYYADSVKGRFTISRDNAKNTVYLQMNSLKPEDTAVYYCDAYSWRRQGDHYDYWGQGTQVTVSS” here?
The value was “high polyreactivity”.

With “QVQLEESGGGLVQAGGSLRLSCAASGSIFYVNAMGWYRQAPGKERELVAAITSSGGSTYYADSVKGRFTISRDNAKNTVYLQMNSLIPEDTAVYYCAVDVYPGVFVEEGEYWGQGTQVTVSS” as the sequence, how does the “polyreactivity (PSR sort gate)” value read?
The value was “low polyreactivity”.

For “QVQLVESGGGLVQAGGSLRLSCAASGLSFSVYAMGWYRQAPGKERELVAAITRNGGSTYYADSVKGRFTISRDTAKNTVYLQMNSLKPEDSAVYYCAAVASSKLYDYWGQGTQVTVSS”, which “polyreactivity (PSR sort gate)” value is on record?
The value was “low polyreactivity”.

Which “polyreactivity (PSR sort gate)” value does the source give for “QVQLVESGGGLVQAGGSLRLSCAATGLTIWHYVMGWYRQAPGKERELVATISSSGGSTFYADSVKGRFTISRDNAKNTVYLQMNSLKPEDTAVYYCNADQYSWRWRRKHDYWGQGTQVTVSS” here?
Its value is “high polyreactivity”.

Which “polyreactivity (PSR sort gate)” value does the source give for “QVQHEESGGGLVQAGGSLRLSCAASGSIFRGNAMGWYRQAPGNERELVAAITRSGGRTYYADSVKGRFTISRDNAKNTVYLQMNSLKPEDTAVYYCAADYPYGSPTHFDYWGPGTQVTVSS” here?
Its value is “high polyreactivity”.

Which “polyreactivity (PSR sort gate)” value does the source give for “QVQLVESGGGLVQAGGSLRLSCAASGSIFPFNAMGCYRQAPGKERELVAAISYSGGSTYYADSVKGRFTISRDNAKNTVYLQMTRLKPEDTAVYYCNRLLRRHLYIFYYWGQGTLVTVSS” here?
Its value is “high polyreactivity”.

Which “polyreactivity (PSR sort gate)” value does the source give for “QVQLVESGGGLVQAGGSLRLSCADSGSTFRRYAMGWYRQAPGKERELVAAISWSGGSTYYADSVKGRFTISRDNAKNTVYLQMKSLKPEDTAVYYCAARGVTSYWQDYDYWGQGTQVTVSS” here?
Its value is “low polyreactivity”.

With “QVQLVESGGVLVQAGGSLRLSCAASGSIFSGYSMGWYRQAPGKERELVAAITWNGGSTYYADSVKGRFTISRDNAKNTVYLQMNILKPEDTAVYYCAAERAARFNYWGQGTQVTVSS” as the sequence, how does the “polyreactivity (PSR sort gate)” value read?
Its value is “high polyreactivity”.

Which “polyreactivity (PSR sort gate)” value does the source give for “QVQLEESGGGLVQAGGSLRLSCAASGRTFKYYAMGWYIQAPGKERELVAAISWSGGDTYYADSVKGRFTISRDNAKNTVYLQMNSLKQEDTAVYYCAKYPWYRYPSYEYWGQGTQVTVSS” here?
Its value is “high polyreactivity”.

Which “polyreactivity (PSR sort gate)” value does the source give for “QVQLVETGGGLVQAGGILRLSCAASGRIFVVYAMGWYRQAPGKERELVASNSRGGRTYYADSVKGRFTISRDNEKNTVYLQMNILKTEDTAVYYCAVVVFLKNRDLFDYWGQGTQVTVSS” here?
Its value is “low polyreactivity”.
